Data published in patent US20230406885A1, “CYCLIC PEPTIDES FOR TRAPPING INTERLEUKIN-1 BETA” (MERCK SHARP & DOHME LLC, priority 2022, published 2023).
*1 amine or outer side, *2 acyl side, *3 side chain or, on linkers, in order; H or OH if unused. [ ]: non-standard residue; d: D form. Pro(trans-4-NH2) = O=C([C@@H]1C[C@@H](N[*:3])CN1[*:1])[*:2]; Trp(βS-Me,4-F) = C[C@@H](c1c[nH]c2cccc(F)c12)[C@H](N)C(=O)O; Bip(4'-COOH) = N[C@@H](Cc1ccc(-c2ccc(C(=O)O)cc2)cc1)C(=O)O; Phe(3-CH2NH2) = O=C([C@H](Cc1cccc(CN[*:3])c1)N[*:1])[*:2]; Phe(4-COOH) = N[C@@H](Cc1ccc(C(=O)O)cc1)C(=O)O; hTyr = N[C@@H](CCc1ccc(O)cc1)C(=O)O; dNMeA = CN[C@H](C)C(=O)O; Nva = CCC[C@H](N)C(=O)O

B1: SEQ ID NO: 73 (peptide)
peptide: cyclo([Bip(4'-COOH)]W[Phe(4-COOH)]G[Pro(trans-4-NH2)][Trp(βS-Me,4-F)]D[dNMeA]G[Bip(4'-COOH)][Phe(3-CH2NH2)]L[dA][hTyr])
SMILES: CC(C)C[C@@H]1NC(=O)[C@H](Cc2cccc(CN)c2)NC(=O)[C@H](Cc2ccc(-c3ccc(C(=O)O)cc3)cc2)NC(=O)CNC(=O)[C@@H](C)N(C)C(=O)[C@H](CC(=O)O)NC(=O)[C@H]([C@@H](C)c2c[nH]c3cccc(F)c23)NC(=O)[C@@H]2C[C@@H](N)CN2C(=O)CNC(=O)[C@H](Cc2ccc(C(=O)O)cc2)NC(=O)[C@H](Cc2c[nH]c3ccccc23)NC(=O)[C@H](Cc2ccc(-c3ccc(C(=O)O)cc3)cc2)NC(=O)[C@H](CCc2ccc(O)cc2)NC(=O)[C@@H](C)NC1=O
B2: SEQ ID NO: 74 (peptide)
peptide: cyclo([Bip(4'-COOH)]W[Phe(4-COOH)]G[Pro(trans-4-NH2)][Trp(βS-Me,4-F)]D[dNMeA]G[Bip(4'-COOH)][Phe(3-CH2NH2)]S[dA][hTyr])
SMILES: C[C@@H]1C(=O)NCC(=O)N[C@@H](Cc2ccc(-c3ccc(C(=O)O)cc3)cc2)C(=O)N[C@@H](Cc2cccc(CN)c2)C(=O)N[C@@H](CO)C(=O)N[C@H](C)C(=O)N[C@@H](CCc2ccc(O)cc2)C(=O)N[C@@H](Cc2ccc(-c3ccc(C(=O)O)cc3)cc2)C(=O)N[C@@H](Cc2c[nH]c3ccccc23)C(=O)N[C@@H](Cc2ccc(C(=O)O)cc2)C(=O)NCC(=O)N2C[C@H](N)C[C@H]2C(=O)N[C@@H]([C@@H](C)c2c[nH]c3cccc(F)c23)C(=O)N[C@@H](CC(=O)O)C(=O)N1C
B3: SEQ ID NO: 71 (peptide)
peptide: cyclo([Bip(4'-COOH)]W[Phe(4-COOH)]G[Pro(trans-4-NH2)][Trp(βS-Me,4-F)]D[dNMeA]G[Bip(4'-COOH)]K[Nva][dA][hTyr])
SMILES: CCC[C@@H]1NC(=O)[C@H](CCCCN)NC(=O)[C@H](Cc2ccc(-c3ccc(C(=O)O)cc3)cc2)NC(=O)CNC(=O)[C@@H](C)N(C)C(=O)[C@H](CC(=O)O)NC(=O)[C@H]([C@@H](C)c2c[nH]c3cccc(F)c23)NC(=O)[C@@H]2C[C@@H](N)CN2C(=O)CNC(=O)[C@H](Cc2ccc(C(=O)O)cc2)NC(=O)[C@H](Cc2c[nH]c3ccccc23)NC(=O)[C@H](Cc2ccc(-c3ccc(C(=O)O)cc3)cc2)NC(=O)[C@H](CCc2ccc(O)cc2)NC(=O)[C@@H](C)NC1=O
B4: SEQ ID NO: 72 (peptide)
peptide: cyclo([Bip(4'-COOH)]W[Phe(4-COOH)]G[Pro(trans-4-NH2)][Trp(βS-Me,4-F)]D[dNMeA]G[Bip(4'-COOH)]KS[dA][hTyr])
SMILES: C[C@@H]1C(=O)NCC(=O)N[C@@H](Cc2ccc(-c3ccc(C(=O)O)cc3)cc2)C(=O)N[C@@H](CCCCN)C(=O)N[C@@H](CO)C(=O)N[C@H](C)C(=O)N[C@@H](CCc2ccc(O)cc2)C(=O)N[C@@H](Cc2ccc(-c3ccc(C(=O)O)cc3)cc2)C(=O)N[C@@H](Cc2c[nH]c3ccccc23)C(=O)N[C@@H](Cc2ccc(C(=O)O)cc2)C(=O)NCC(=O)N2C[C@H](N)C[C@H]2C(=O)N[C@@H]([C@@H](C)c2c[nH]c3cccc(F)c23)C(=O)N[C@@H](CC(=O)O)C(=O)N1C
B5: SEQ ID NO: 70 (peptide)
peptide: cyclo([Bip(4'-COOH)]W[Phe(4-COOH)]G[Pro(trans-4-NH2)][Trp(βS-Me,4-F)]D[dNMeA]G[Bip(4'-COOH)]KLG[hTyr])
SMILES: CC(C)C[C@@H]1NC(=O)[C@H](CCCCN)NC(=O)[C@H](Cc2ccc(-c3ccc(C(=O)O)cc3)cc2)NC(=O)CNC(=O)[C@@H](C)N(C)C(=O)[C@H](CC(=O)O)NC(=O)[C@H]([C@@H](C)c2c[nH]c3cccc(F)c23)NC(=O)[C@@H]2C[C@@H](N)CN2C(=O)CNC(=O)[C@H](Cc2ccc(C(=O)O)cc2)NC(=O)[C@H](Cc2c[nH]c3ccccc23)NC(=O)[C@H](Cc2ccc(-c3ccc(C(=O)O)cc3)cc2)NC(=O)[C@H](CCc2ccc(O)cc2)NC(=O)CNC1=O

biological target: Recombinant human IL-1β (BioLegend 579404) (human, UniProt P01584 117-269); assay: cell-based or functional assay

Binder	MRC5 IC50
B1	0.0509 nM
B2	0.296 nM
B3	0.0926 nM
B4	0.107 nM
B5	0.0973 nM
